In IntAct's records for PubMed 26751641:

B1: Chromodomain-helicase-DNA-binding protein 1 (Homo sapiens), O14646 (parent)
chain: MNGHSDEESVRNSSGESSQSDDDSGSASGSGSGSSSGSSSDGSSSQSGSSDSDSGSESGSQSESESDTSRENKVQAKPPKVDGAEFWKSSPSILAVQRSAILKKQQQQQQQQQHQASSNSGSEEDSSSSEDSDDSSSEVKRKKHKDEDWQMSGSGSPSQSGSDSESEEEREKSSCDETESDYEPKNKVKSRKPQNRSKSKNGKKILGQKKRQIDSSEEDDDEEDYDNDKRSSRRQATVNVSYKEDEEMKTDSDDLLEVCGEDVPQPEEEEFETIERFMDCRIGRKGATGATTTIYAVEADGDPNAGFEKNKEPGEIQYLIKWKGWSHIHNTWETEETLKQQNVRGMKKLDNYKKKDQETKRWLKNASPEDVEYYNCQQELTDDLHKQYQIVERIIAHSNQKSAAGYPDYYCKWQGLPYSECSWEDGALISKKFQACIDEYFSRNQSKTTPFKDCKVLKQRPRFVALKKQPSYIGGHEGLELRDYQLNGLNWLAHSWCKGNSCILADEMGLGKTIQTISFLNYLFHEHQLYGPFLLVVPLSTLTSWQREIQTWASQMNAVVYLGDINSRNMIRTHEWTHHQTKRLKFNILLTTYEILLKDKAFLGGLNWAFIGVDEAHRLKNDDSLLYKTLIDFKSNHRLLITGTPLQNSLKELWSLLHFIMPEKFSSWEDFEEEHGKGREYGYASLHKELEPFLLRRVKKDVEKSLPAKVEQILRMEMSALQKQYYKWILTRNYKALSKGSKGSTSGFLNIMMELKKCCNHCYLIKPPDNNEFYNKQEALQHLIRSSGKLILLDKLLIRLRERGNRVLIFSQMVRMLDILAEYLKYRQFPFQRLDGSIKGELRKQALDHFNAEGSEDFCFLLSTRAGGLGINLASADTVVIFDSDWNPQNDLQAQARAHRIGQKKQVNIYRLVTKGSVEEDILERAKKKMVLDHLVIQRMDTTGKTVLHTGSAPSSSTPFNKEELSAILKFGAEELFKEPEGEEQEPQEMDIDEILKRAETHENEPGPLTVGDELLSQFKVANFSNMDEDDIELEPERNSKNWEEIIPEDQRRRLEEEERQKELEEIYMLPRMRNCAKQISFNGSEGRRSRSRRYSGSDSDSISEGKRPKKRGRPRTIPRENIKGFSDAEIRRFIKSYKKFGGPLERLDAIARDAELVDKSETDLRRLGELVHNGCIKALKDSSSGTERTGGRLGKVKGPTFRISGVQVNAKLVISHEEELIPLHKSIPSDPEERKQYTIPCHTKAAHFDIDWGKEDDSNLLIGIYEYGYGSWEMIKMDPDLSLTHKILPDDPDKKPQAKQLQTRADYLIKLLSRDLAKKEALSGAGSSKRRKARAKKNKAMKSIKVKEEIKSDSSPLPSEKSDEDDDKLSESKSDGRERSKKSSVSDAPVHITASGEPVPISEESEELDQKTFSICKERMRPVKAALKQLDRPEKGLSEREQLEHTRQCLIKIGDHITECLKEYTNPEQIKQWRKNLWIFVSKFTEFDARKLHKLYKHAIKKRQESQQNSDQNSNLNPHVIRNPDVERLKENTNHDDSSRDSYSSDRHLTQYHDHHKDRHQGDSYKKSDSRKRPYSSFSNGKDHRDWDHYKQDSRYYSDREKHRKLDDHRSRDHRSNLEGSLKDRSHSDHRSHSDHRLHSDHRSSSEYTHHKSSRDYRYHSDWQMDHRASSSGPRSPLDQRSPYGSRSPFEHSVEHKSTPEHTWSSRKT

Variants of: B1
Conditions: with KDM1A

| Variant | effect of a mutation on the interaction |
| --- | --- |
| D425A | disrupting interaction strength |
